Measured values reported in FireProtDB (doi:10.1046/j.1432-1327.1999.00918.x).

Settings: Homo sapiens; pH 2.7; Thermal; DSC; glycine 0.05 M; reversible: yes; whole UniProt chain shown

B1: Lysozyme C wild type, P61626 (protein)
chain: MKALIVLGLVLLSVTVQGKVFERCELARTLKRLGMDGYRGISLANWMCLAKWESGYNTRATNYNAGDRSTDYGIFQINSRYWCNDGKTPGAVNACHLSCSALLQDNIADAVACAKRVVRDPQGIRAWVAWRNRCQNRDVRQYVQGCGV
Tm: 64.9 °C
heat capacity change of unfolding: 1.55 kcal/mol/K
unfolding enthalpy (calorimetric): 114 kcal/mol
